Assay results published in PMC12136491, “Establishment of an efficient one-step enzymatic synthesis of cyclic-2,3-diphosphoglycerate” (Frontiers in Microbiology, 2025).

Assays:
purified protein [1] = substrate: Nc1ncnc2c1ncn2[C@@H]1O[C@H](COP(=O)(O)OP(=O)(O)OP(=O)(O)O)[C@@H](O)[C@H]1O; test: purified protein; type: biochemical, Methanothermus fervidus; conditions: 10 mM 2,3DPG constant, Mg2+/ATP molar ratio 0.5, 50 mM MES/KOH pH 6.5, 400 mM KCl, 55°C, two-substrate Michaelis-Menten fit
purified protein [2] = substrate: O=C(O)[C@@H](COP(=O)(O)O)OP(=O)(O)O; test: purified protein; type: biochemical, Methanothermus fervidus; conditions: 10 mM ATP constant, Mg2+/ATP molar ratio 0.5, 50 mM MES/KOH pH 6.5, 400 mM KCl, 55°C, two-substrate Michaelis-Menten fit

B1: MfcDPGS (cyclic-2,3-diphosphoglycerate synthetase) (Methanothermus fervidus DSM 2088) (protein)
chain: GETKKMICLVDGEHYFPVVKDSIEILDDLEHIDVVAVVFIGGTEKLQIEDPKEYSEKLGKPVFFGPDPKKIPYDVIKKCVKKYNADIVMDLSDEPVVDYTKRFRIASIVLKEGAVYQGADFKFEPLTEYDVLEKPSIKIIGTGKRIGKTAVSAYAARVIHKHKYNPCVVAMGRGGPREPEIVEGNKIEITAEYLLEQADKGVHAASDHWEDALMSRILTVGCRRCGGGMLGDTFITNVKRGAEIANKLDSDFVIMEGSGAAIPPVKTNRQIVTVGANQPMININNFFGPFRIGLADLVIITMCEEPMATTEKIKKVEKFIKEINPSANVIPTVFRPKPVGNVEGKKVLFATTAPKVVVGKLVNYLESKYGCDVVGVTPHLSNRPLLRRDLKKYINKADLMLTELKAAAVDVATRVAIEAGLDVVYCDNIPVVIDESYGNIDDAIIEVVEMAIDDFKNNR
notes: heat precipitation and SEC; homodimer (119 kDa)
Km (purified protein [1]): 550 ± 80 µM | Km (purified protein [2]): 1520 ± 400 µM
